The data set deals with the molecule itself. Kind of data set: gel filtration on Sephacryl 300 HR at pH 5.3 (self-association, homodimer). A general note: SEC sorts molecules by how far they enter the pores of the column.

B1: bovine βB2 crystallin (other)
chain: ASDHQTQAGKPQPLNPKIIIFEQENFQGHSHELNGPCPNLKETGVEKAGSVLVQAGPWVGYEQANCKGEQFVFEKGEYPRWDSWTSSRRTDSLSSLRPIKVDSQEHKITLYENPNFTGKKMEVIDDDVPSFHAHGYQEKVSSVRVQSGTWVGYQYPGYRGLQYLLEKGDYKDSGDFGAPQPQVQSVRRIRDMQWHQRGAFHPSS
modifications: N-terminus acetylated (as extracted from bovine eye)
notes: Native intact protein purified from bovine eye lens; Wound Heal 1 = gel filtration at pH 5.3; Wound Heal 2 = 100 kDa retentate plus gel filtration, and also holds some βA3 crystallin; also called Crystallin βB2; Wound Heal 1
Take B1: the binding result is “binds”.

(Values after patent US8404644 (MEAT AND LIVESTOCK AUSTRALIA, dated 2013).)
